Data from patent US10736933B2, “Peptide-induced NK cell activation” (priority 2015, dated 2020).

Tests used:
[1] = target: HLA-Cw*0102 (Homo sapiens, UniProt P10321, A176E/A330V/A35S/A97T/C350S/D114A/D33F/L171W/L180R/L218V/M285V/M309V/M331V/P208H/Q277E/Q291P/R121W/R243W/R30K/S123C/S140Y/S297R/T329A/T363A/V272M/V319A); test: Peptide binding to HLA-Cw*0102 on L721.174 cells (cell surface MHC class I, flow cytometry); assay type: cell-based; details: increasing concentrations of peptide, overnight at 26° C.
Procedure: (§1) The HLA-Cw*0102-positive cell line L721.174 was incubated with increasing concentrations of the LNPSVAATL (SEQ ID NO: 5) peptide or a control peptide VAPWNSLSL (SEQ ID NO: 11). Cells were stained for cell surface of MHC class I and analysed by flow cytometry. The mean fluorescence intensity of cell surface MHC Class I was plotted against the peptide concentration.
as §1, with “HLA-Cw*0102 • positive” for “HLA-Cw*0102-positive”, “peptides IVDLMCHATF” for “LNPSVAATL”, “1); VIDAMCHATL (SEQ ID NO: 2); AANVMAASL (SEQ ID NO: 3); and FLSDVPVATL (SEQ ID NO: 4)” for “5) peptide”, “[…].” for “VAPWNSLSL (SEQ ID NO: 11).”
3×10^5 cells were used per condition. Following washing in PBS the cells were stained for cell surface of MHC class I and analysed by flow cytometry. The mean fluorescence intensity of cell surface MHC Class I was plotted against the peptide concentration.
With reference to FIG. 12, the HLA-Cw*0102-positive cell line L721.174 was incubated with increasing concentrations of the peptides IVDLMCHATF (SEQ ID NO: 1), VIDAMCHATL (SEQ ID NO: 2), AANVMAASL (SEQ ID NO: 3); and FLSDVPVATL (SEQ ID NO: 4) overnight at 26° C. 3×10^5 cells were used per condition. Following washing in PBS the cells were stained for cell surface of MHC class I and analysed by flow cytometry. The mean fluorescence intensity of cell surface MHC Class I was plotted against the peptide concentration.

[2] = target: T1, KIR2DS2 (Homo sapiens, UniProt P43631); test: KIR2DS2 tetramer (KIR2DS2-PE) staining of peptide-loaded L721.174 cells; assay type: binding; details: L721.174 cells incubated overnight at 26° C. with peptide, flow cytometry
T1 construct: made in house
T1 sequence (P43631 22-245 limits assumed): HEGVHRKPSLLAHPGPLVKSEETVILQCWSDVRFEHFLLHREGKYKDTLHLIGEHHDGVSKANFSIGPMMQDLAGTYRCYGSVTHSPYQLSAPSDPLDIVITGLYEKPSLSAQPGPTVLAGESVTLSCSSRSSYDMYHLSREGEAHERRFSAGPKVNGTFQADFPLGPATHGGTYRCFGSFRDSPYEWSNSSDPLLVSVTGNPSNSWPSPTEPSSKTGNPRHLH
Procedure: A. The KIR2DS2 protein was expressed with a biotinylation C-terminal tag. Following biotinylation with the BirA enzyme, the KIR2DS2 protein was incubated with streptavidin-phycoerythrin to form fluorescent KIR2DS2-tetramers (KIR2DS2-PE). L721.174 cells were then incubated with indicated peptides. Cells were then stained with KIR2DS2-PE and analysed by flow cytometry. Shown are histogram plots. The bold numbers represent the mean fluorescent staining intensity of the KIR2DS2-PE staining of the cells in the presence of peptide and the non-bold numbers the staining in the absence of peptide. B. Represents the mean and standard error fluorescent intensities of the experiment in “A” following replicate experiments.
A. L721.174 cells were incubated with indicated peptides. Cells were then stained with KIR2DS2-PE (see FIG. 4) and analysed by flow cytometry. Shown are histogram plots. The bold numbers represent the mean fluorescent staining intensity of the KIR2DS2-PE staining of the cells in the presence of peptide and the non-bold numbers the staining in the absence of peptide. B. Represents the mean and standard error fluorescent intensities of the experiment in “A” following replicate experiments.
FIG. 13—KIR2DS2 tetramer staining on 174 cells with and without peptides. Peptides tested include IVDLMCHATF (SEQ ID NO: 1); VIDAMCHATL (SEQ ID NO: 2); AANVMAASL (SEQ ID NO: 3); and FLSDVPVATL (SEQ ID NO: 4). A negative control peptide VAPWNSFAL (SEQ ID NO: 12) and positive control peptide LNPSVAATL (SEQ ID NO: 5) were included. The mean fluorescence intensity of the KIR2DS2 tetramer staining is shown in the right hand corner of the graph.
With reference to FIG. 4A, the KIR2DS2 protein was expressed as a recombinant protein with a biotinylation C-terminal tag. Following biotinylation with the BirA enzyme, the KIR2DS2 protein was incubated with streptavidin-phycoerythrin to form fluorescent KIR2DS2-tetramers (KIR2DS2-PE). 3×10^5 L721.174 cells were then incubated overnight at 26° C. with indicated peptides at a concentration of […]. Cells were then stained with KIR2DS2-PE and analysed by flow cytometry. Shown are histogram plots. The bold numbers represent the mean fluorescent staining intensity of the KIR2DS2-PE staining of the cells in the presence of peptide and the non-bold numbers the staining in the absence of peptide. With reference to FIG. 4B, panel B represents the mean and standard error fluorescent intensities of the experiment in “A” following replicate experiments.
With reference to FIG. 5A, 3×10^5 L721.174 cells were incubated overnight at 26° C. with indicated peptides at a concentration of 200 μM. Cells were then stained with KIR2DS2-PE (see FIG. 4) and analysed by flow cytometry. Shown are histogram plots. The bold numbers represent the mean fluorescent staining intensity of the KIR2DS2-PE staining of the cells in the presence of peptide and the non-bold numbers the staining in the absence of peptide. With reference to FIG. 5B, panel B represents the mean and standard error fluorescent intensities of the experiment in “A” following replicate experiments.
With reference to FIG. 13, the KIR2DS2 protein was expressed as a recombinant protein with a biotinylation C-terminal tag. Following biotinylation with the BirA enzyme, the KIR2DS2 protein was incubated with streptavidin-phycoerythrin to form fluorescent KIR2DS2-tetramers (KIR2DS2-PE). […] Cells were then stained with KIR2DS2-PE and analysed by flow cytometry. […]

| Sequence | binding to HLA-Cw*0102 (mean fluorescence intensity of cell surface MHC Class I) [1] | KIR2DS2-PE tetramer binding to HLA-C*0102 and peptide [2] |
| --- | --- | --- |
| IVDLMCHATF [Dengue virus peptide] | bind HLA-Cw*0102 | KIR2DS2 BINDS |
| LNPSVAATL [peptide recognized by KIR2DS2-positive NK cells] | binds HLA-Cw*0102 | KIR2DS2 binds |
